Results from PMC3535332 (Nature Communications, 2012).

Tests used:
purified protein [1] = substrate: NC(=O)c1ccc[n+]([C@@H]2O[C@H](COP(=O)(O)OP(=O)(O)OC[C@H]3O[C@@H](n4cnc5c(N)ncnc54)[C@H](O)[C@@H]3O)[C@@H](O)[C@H]2O)c1; assay: purified protein; details: ATP as donor, 20 mM MgCl2, 100 mM Tris-HCl pH 8.0, 37 °C
purified protein [2] = substrate: Nc1ncnc2c1ncn2[C@@H]1O[C@H](COP(=O)(O)OP(=O)(O)OP(=O)(O)O)[C@@H](O)[C@H]1O; assay: purified protein; details: 5 mM NAD+, 40 mM MgCl2, 100 mM Tris-HCl pH 8.0, 37 °C
SEC = molecular target: the molecule itself; assay: SEC

B1: purified C5orf33 protein (His-tagged Δ62C5orf33 protein) (enzyme, human, UniProt Q4G0N4-1 63-442, looked up)
chain: DGGFRPSRVVVVAKTTRYEFEQQRYRYAELSEEDLKQLLALKGSSYSGLLERHHIHTKNVEHIIDSLRNEGIEVRLVKRREYDEETVRWADAVIAAGGDGTMLLAASKVLDRLKPVIGVNTDPERSEGHLCLPVRYTHSFPEALQKFYRGEFRWLWRQRIRLYLEGTGINPVPVDLHEQQLSLNQHNRALNIERAHDERSEASGPQLLPVRALNEVFIGESLSSRASYYEISVDDGPWEKQKSSGLNLCTGTGSKAWSFNINRVATQAVEDVLNIAKRQGNLSLPLNRELVEKVTNEYNESLLYSPEEPKILFSIREPIANRVFSSSRQRCFSSKVCVRSRCWDACMVVDGGTSFEFNDGAIASMMINKEDELRTVLLEQ
- Km (purified protein [1]): 22 ± 1 µM
- Km (purified protein [2]): 1700 ± 300 µM
- stoichiometry N (SEC): 2
